Assay results reported in the supplement of paper PMC11316812.
± gives the standard deviation of the averaged measurements.

How the values were obtained:
MCF7 = test: percentage of EdU-negative (G0-arrested) nuclei per well, 72 h; higher = more G0 arrest; conditions: reference: sequence is the full UniProt precursor, the tested protein was the secreted form or ectodomain
hTERT-HMEC = test: as above; conditions: reference: sequence is the full UniProt precursor, the tested protein was the secreted form or ectodomain
[1] = protein concentration 0.0191325 µM
[2] = protein concentration 0.191325 µM
[3] = protein concentration 0.0175 µM
[4] = protein concentration 0.01475 µM
[5] = protein concentration 0.1475 µM
[6] = protein concentration 0.0225 µM
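Also: secreted proteins added to cultured cells, EdU pulse at the end, nuclei found by Hoechst imaging, EdU status from nuclear versus surrounding ring intensity ratio, PBS as neutral control.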

MLLPWATSAPGLAWGPLVLGLFGLLAASQPQAVPPYASENQTCRDQEKEYYEPQHRICCSRCPPGTYVSAKCSRIRDTVCATCAENSYNEHWNYLTICQLCRPCDPVMGLEEIAPCTSKRKTQCRCQPGMFCAAWALECTHCELLSDCPPGTEAELKDEVGKGNNHCVPCKAGHFQNTSSPSARCQPHTRCENQGLVEAAPGTAQSDTTCKNPLEPLPPEMSGTMLMLAVLLPLAFFLLLATVFSCIWKSHPSLCRKLGSLLKRRPQGEGPNPVAGSWEPPKAHPYFPDLVQPLLPISGDVSPVSTGLPAAPVLEAGVPQQQSPLDLTREPQLEPGEQSQVAHGTNGIHVTGGSMTITGNIYIYNGPVLGGPPGPGDLPATPEPPYPIPEEGDPGPPGLSTPHQEDGKAWHLAETEHCGATPSNRGPRNQFITHD
percentage of EdU-negative (MCF7; [1]): 26.7 ± 0.76%
percentage of EdU-negative (MCF7; [2]): 27.3 ± 0.76%
percentage of EdU-negative (hTERT-HMEC; [1]): 5.06 ± 0.25%
percentage of EdU-negative (hTERT-HMEC; [2]): 5.55 ± 1.9%

MLLRGVLLALQALQLAGALDLPAGSCAFEESTCGFDSVLASLPWILNEEGHYIYVDTSFGKQGEKAVLLSPDLQAEEWSCLRLVYQITTSSESLSDPSQLNLYMRFEDESFDRLLWSAKEPSDSWLIASLDLQNSSKKFKILIEGVLGQGNTASIALFEIKMTTGYCIECDFEENHLCGFVNRWNPNVNWFVGGGSIRNVHSILPQDHTFKSELGHYMYVDSVYVKHFQEVAQLISPLTTAPMAGCLSFYYQIQQGNDNVFSLYTRDVAGLYEEIWKADRPGNAAWNLAEVEFSAPYPMEVIFEVAFNGPKGGYVALDDISFSPVHCQNQTELLFSAVEASCNFEQDLCNFYQDKEGPGWTRVKVKPNMYRAGDHTTGLGYYLLANTKFTSQPGYIGRLYGPSLPGNLQYCLRFHYAIYGFLKMSDTLAVYIFEENHVVQEKIWSVLESPRGVWMQAEITFKKPMPTKVVFMSLCKSFWDCGLVALDDITIQLGSCSSSEKLPPPPGECTFEQDECTFTQEKRNRSSWHRRRGETPTSYTGPKGDHTTGVGYYMYIEASHMVYGQKARLLSRPLRGVSGKHCLTFFYHMYGGGTGLLSVYLKKEEDSEESLLWRRRGEQSISWLRALIEYSCERQHQIIFEAIRGVSIRSDIAIDDVKFQAGPCGEMEDTTQQSSGYSEDLNEIEY [Q7Z304]
percentage of EdU-negative (MCF7; [3]): 28.1 ± 1.3%
percentage of EdU-negative (MCF7; protein concentration 0.175 µM): 31.9 ± 1.8%
percentage of EdU-negative (hTERT-HMEC; [3]): 5.68 ± 0.56%
percentage of EdU-negative (hTERT-HMEC; protein concentration 0.175 µM): 8.11 ± 0.92%

MLLRLLLAWAAAGPTLGQDPWAAEPRAACGPSSCYALFPRRRTFLEAWRACRELGGDLATPRTPEEAQRVDSLVGAGPASRLLWIGLQRQARQCQLQRPLRGFTWTTGDQDTAFTNWAQPASGGPCPAQRCVALEASGEHRWLEGSCTLAVDGYLCQFGFEGACPALQDEAGQAGPAVYTTPFHLVSTEFEWLPFGSVAAVQCQAGRGASLLCVKQPEGGVGWSRAGPLCLGTGCSPDNGGCEHECVEEVDGHVSCRCTEGFRLAADGRSCEDPCAQAPCEQQCEPGGPQGYSCHCRLGFRPAEDDPHRCVDTDECQIAGVCQQMCVNYVGGFECYCSEGHELEADGISCSPAGAMGAQASQDLGDELLDDGEDEEDEDEAWKAFNGGWTEMPGILWMEPTQPPDFALAYRPSFPEDREPQIPYPEPTWPPPLSAPRVPYHSSVLSVTRPVVVSATHPTLPSAHQPPVIPATHPALSRDHQIPVIAANYPDLPSAYQPGILSVSHSAQPPAHQPPMISTKYPELFPAHQSPMFPDTRVAGTQTTTHLPGIPPNHAPLVTTLGAQLPPQAPDALVLRTQATQLPIIPTAQPSLTTTSRSPVSPAHQISVPAATQPAALPTLLPSQSPTNQTSPISPTHPHSKAPQIPREDGPSPKLALWLPSPAPTAAPTALGEAGLAEHSQRDDRWLLVALLVPTCVFLVVLLALGIVYCTRCGPHAPNKRITDCYRWVIHAGSKSPTEPMPPRGSLTGVQTCRTSV [Q9HCU0]
percentage of EdU-negative (MCF7; [4]): 25.7 ± 2.5%
percentage of EdU-negative (MCF7; [5]): 27.5 ± 1.9%
percentage of EdU-negative (hTERT-HMEC; [4]): 4.69 ± 0.05%
percentage of EdU-negative (hTERT-HMEC; [5]): 6.87 ± 0.4%

MLLSVPLLLGLLGLAVAEPAVYFKEQFLDGDGWTSRWIESKHKSDFGKFVLSSGKFYGDEEKDKGLQTSQDARFYALSASFEPFSNKGQTLVVQFTVKHEQNIDCGGGYVKLFPNSLDQTDMHGDSEYNIMFGPDICGPGTKKVHVIFNYKGKNVLINKDIRCKDDEFTHLYTLIVRPDNTYEVKIDNSQVESGSLEDDWDFLPPKKIKDPDASKPEDWDERAKIDDPTDSKPEDWDKPEHIPDPDAKKPEDWDEEMDGEWEPPVIQNPEYKGEWKPRQIDNPDYKGTWIHPEIDNPEYSPDPSIYAYDNFGVLGLDLWQVKSGTIFDNFLITNDEAYAEEFGNETWGVTKAAEKQMKDKQDEEQRLKEEEEDKKRKEEEEAEDKEDDEDKDEDEEDEEDKEEDEEEDVPGQAKDEL
percentage of EdU-negative (MCF7; [6]): 21.8 ± 0.44%
percentage of EdU-negative (MCF7; protein concentration 0.225 µM): 28.2 ± 2.5%
percentage of EdU-negative (hTERT-HMEC; [6]): 5.2 ± 0.44%
percentage of EdU-negative (hTERT-HMEC; protein concentration 0.225 µM): 15.5 ± 2.6%
